From publication PMC8512545, “Chitinase Chit62J4 Essential for Chitin Processing by Human Microbiome Bacterium Clostridium paraputrificum J4” (Molecules, 2021)

Test system: CC(=O)N[C@H]1[C@H](Oc2ccc([N+](=O)[O-])cc2)O[C@H](CO)[C@@H](O[C@@H]2O[C@H](CO)[C@@H](O)[C@H](O)[C@H]2NC(C)=O)[C@@H]1O
Test: purified protein
Assay type: biochemical, Clostridium paraputrificum
Settings: 0.1 M citric acid-potassium phosphate pH 5.5, 37 °C

Q: For “crChit62J4 (crude/isolated Chit62J4) (Clostridium paraputrificum)”, which Km (native enzyme) is on record?
A: The Km was 570 µM.

Q: What about the kcat (native enzyme) of the same substance?
A: Its kcat is 13.5 s⁻¹.

Q: Which results are given for “rChit62J4cat (Clostridium paraputrificum)”?
A: Km (no added compound): 190 ± 20 µM; kcat (no added compound): 31.4 ± 0.8 s⁻¹

Q: For rChit62J4 (Clostridium paraputrificum), which Km (no added compound) is on record?
A: Its Km is 240 ± 20 µM.

Q: And the kcat (no added compound)?
A: Its kcat is 31.5 ± 0.9 s⁻¹.
